Reference: paper PMC12219854 (Nature Communications, 2025)
Each block holds one binder with its values, some of them ahead of it.

Tests used:
[1] = molecular target: GST-Bahcc1^TTD (murine Bahcc1 amino acids 1904-2044) (mouse, UniProt Q3UHR0 1904-2044); assay: pull-down
[2] = molecular target: GST-53BP1^TTD (amino acids 1235-1709) (UniProt Q12888 1235-1709); assay: pull-down
Chain of GST-53BP1^TTD (amino acids 1235-1709) (Q12888 1235-1709): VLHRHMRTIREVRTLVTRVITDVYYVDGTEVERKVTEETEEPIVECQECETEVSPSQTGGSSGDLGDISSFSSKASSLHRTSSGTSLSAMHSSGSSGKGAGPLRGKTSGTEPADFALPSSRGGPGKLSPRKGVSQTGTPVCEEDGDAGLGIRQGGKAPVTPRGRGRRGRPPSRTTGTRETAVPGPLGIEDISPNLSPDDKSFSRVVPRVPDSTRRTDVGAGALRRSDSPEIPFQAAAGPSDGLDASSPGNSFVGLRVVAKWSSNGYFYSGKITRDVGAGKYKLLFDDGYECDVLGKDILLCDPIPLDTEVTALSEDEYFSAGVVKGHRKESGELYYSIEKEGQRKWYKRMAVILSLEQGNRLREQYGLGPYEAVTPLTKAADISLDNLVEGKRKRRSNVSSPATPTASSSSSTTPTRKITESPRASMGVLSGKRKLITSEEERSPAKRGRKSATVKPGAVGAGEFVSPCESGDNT

Chain of GST-Bahcc1^TTD (murine Bahcc1 amino acids 1904-2044) (Q3UHR0 1904-2044): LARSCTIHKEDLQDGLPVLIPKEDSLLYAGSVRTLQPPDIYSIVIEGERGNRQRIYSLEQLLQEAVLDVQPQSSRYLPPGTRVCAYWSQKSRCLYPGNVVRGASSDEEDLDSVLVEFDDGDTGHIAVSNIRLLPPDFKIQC

- binding result [1]: binds
B1: biotinylated H4 peptide, amino acids 11 to 27, H4K20me1 (peptide, UniProt P62805 12-28, looked up)
peptide: GKGGAKRHRKVLRDNIQ
modifications: monomethyl-lysine at K20; biotin (position not given)

- binding result [2]: binds
B2: biotinylated H4 peptide, amino acids 11 to 27, H4K20me2 (peptide, UniProt P62805 12-28, looked up)
peptide: GKGGAKRHRKVLRDNIQ
modifications: dimethyl-lysine at K20; biotin (position not given)
